Test results as given in patent US8043804B2, “DBC1, a novel native inhibitor of anti-aging protein SIRT1” (The Trustees of Columbia University in the City of New York, priority 2007, dated 2011).

Assays:
Assay type in all cases: biochemical
SIRT2 = molecular target: T1, SIRT2 (Homo sapiens, UniProt Q8IXJ6); test: In vitro deacetylation assay, acetylated tubulin as substrate of purified SIRT2; conditions: nicotinamide 5 mM, increasing amounts of DBC1 (FIG. 3d)
T1 construct: made in house; host or cells: transfected mammalian cells (293 cells are named for the Flag-SIRT constructs)
T1 sequence (Q8IXJ6 1-389): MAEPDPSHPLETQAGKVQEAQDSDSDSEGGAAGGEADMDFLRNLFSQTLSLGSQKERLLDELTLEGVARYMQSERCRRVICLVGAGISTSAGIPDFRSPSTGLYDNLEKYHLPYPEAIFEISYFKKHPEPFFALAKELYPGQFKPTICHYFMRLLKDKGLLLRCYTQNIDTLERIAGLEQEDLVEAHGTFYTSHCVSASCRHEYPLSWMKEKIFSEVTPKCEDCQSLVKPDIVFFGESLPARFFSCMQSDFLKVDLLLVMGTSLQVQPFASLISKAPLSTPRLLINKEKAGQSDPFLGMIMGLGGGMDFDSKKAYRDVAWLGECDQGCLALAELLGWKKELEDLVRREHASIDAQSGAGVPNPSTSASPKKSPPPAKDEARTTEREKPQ

HDAC1 = HDAC1 (Homo sapiens, UniProt Q13547); test: In vitro deacetylation of p53 by purified HDAC1 complex; conditions: purified HDAC1 complexes, increasing amounts of DBC1 (FIG. 9)
Protocol: FIG. 9. Effect of DBC1 on HDAC1 mediated p53 deacetylation in vitro. Purified HDAC1 complex was used to deacetylate p53 in vitro (lane 2). Increasing amounts of DBC1 were added in addition to HADC1 (lanes 3-4) to investigate whether DBC1 can inhibit p53 deacetylation by HDAC1. […] The samples were resolved by SDS-PAGE and analyzed by Western Blot using antibodies for acetylated p53, total p53 (DO-1), HDAC1 and DBC1.
Finally, p53 could also be deacetylated by purified HDAC1 complexes as previously shown (Luo, 2000) (lane 2, FIG. 9); this deacetylase activity was not repressed by DBC1 (lanes 3-4).

SIRT1 = molecular target: T2, SIRT1 (Homo sapiens, UniProt Q96EB6); test: In vitro deacetylation assay, acetylated p53 as substrate of purified Flag-SIRT1; conditions: purified system, 50 μM NAD, dose dependent, Western blot (FIG. 3c)
T2 construct: made in house
T2 sequence (Q96EB6 1-747): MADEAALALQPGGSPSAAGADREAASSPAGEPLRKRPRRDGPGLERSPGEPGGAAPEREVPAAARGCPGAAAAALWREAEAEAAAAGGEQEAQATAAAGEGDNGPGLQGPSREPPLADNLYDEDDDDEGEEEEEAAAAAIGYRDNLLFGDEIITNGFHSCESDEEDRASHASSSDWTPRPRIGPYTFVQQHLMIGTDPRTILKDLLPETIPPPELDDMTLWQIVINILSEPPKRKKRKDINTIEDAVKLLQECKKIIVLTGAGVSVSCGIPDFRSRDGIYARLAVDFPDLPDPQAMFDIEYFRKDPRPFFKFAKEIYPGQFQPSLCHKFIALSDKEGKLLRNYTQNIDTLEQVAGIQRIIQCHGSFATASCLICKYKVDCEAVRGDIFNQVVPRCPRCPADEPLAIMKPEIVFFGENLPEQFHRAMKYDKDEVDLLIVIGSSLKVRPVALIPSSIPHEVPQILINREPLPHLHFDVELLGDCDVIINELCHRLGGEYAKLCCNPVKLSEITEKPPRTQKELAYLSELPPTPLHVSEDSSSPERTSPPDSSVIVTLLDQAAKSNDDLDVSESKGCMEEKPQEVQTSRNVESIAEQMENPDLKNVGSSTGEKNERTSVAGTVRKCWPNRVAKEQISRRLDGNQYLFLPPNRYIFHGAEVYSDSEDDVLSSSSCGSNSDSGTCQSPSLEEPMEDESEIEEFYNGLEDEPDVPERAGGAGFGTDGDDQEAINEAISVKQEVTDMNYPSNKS
Protocol: FIG. 3. DBC1 inhibits SIRT1 mediated deacetylation of p53 (a) Fractionation of immunoprecipitated F-SIRT1 complex. 293 cells were transfected with Flag-tagged SIRT1 and Flag-SIRT1 complexes were subsequently purified by M2-immunoprecipitation in FLAG-lysis buffer. Flag-SIRT1 complex was eluted in 100 ul of elution buffer and half of the elution was fractioned by size-exclusion chromatography on a Sepherose12 Column on the SMART system. 10% of each fraction was analyzed by Western Blot for DBC1 (upper panel) and SIRT1 (lower panel). (b) DBC1 inhibits SIRT1 mediated deacetylation of p53 in vitro. […] The reactions were resolved on SDS-PAGE and analyzed by Western Blot using antibodies specific for acetylated p53, total p53 (DO-1), SIRT1 and DBC1. […] The reactions were resolved on SDS-Page and analyzed by Western Blot using antibodies specific for acetylated p53, total p53, SIRT1 and DBC1. […]
Although the deacetylase activity of SIRT1 is essential for its function, it is unknown how this activity is regulated. When purified Flag-SIRT1 complexes from human cells were analyzed by gel-filtration chromatography on a Superose 12 column (SMART system), SIRT1 and DBC1 polypeptides co-eluted in fraction 15 with an apparent molecular weight of 440 KDa (lane 4, FIG. 3a). […]

Sequence of HDAC1 (Q13547 whole entry, species assumed): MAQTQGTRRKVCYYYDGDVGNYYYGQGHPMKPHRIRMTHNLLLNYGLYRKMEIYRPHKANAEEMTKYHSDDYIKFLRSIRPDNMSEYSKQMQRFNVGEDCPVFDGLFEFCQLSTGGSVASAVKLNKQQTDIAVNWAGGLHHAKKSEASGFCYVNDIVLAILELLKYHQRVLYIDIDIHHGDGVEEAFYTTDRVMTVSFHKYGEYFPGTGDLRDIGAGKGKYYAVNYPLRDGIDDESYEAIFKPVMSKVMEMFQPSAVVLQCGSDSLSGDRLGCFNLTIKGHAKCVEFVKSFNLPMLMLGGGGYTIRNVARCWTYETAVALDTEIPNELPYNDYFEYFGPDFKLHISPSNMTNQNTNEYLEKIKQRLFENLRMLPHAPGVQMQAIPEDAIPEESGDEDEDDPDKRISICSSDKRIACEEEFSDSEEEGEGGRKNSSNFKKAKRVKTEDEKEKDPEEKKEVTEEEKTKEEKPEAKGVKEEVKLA

| SIRT2-mediated deacetylation of acetylated tubulin (SIRT2) | HDAC1-mediated deacetylation of p53 (HDAC1) | SIRT1-mediated deacetylation of acetylated p53 (SIRT1) | Compound |
| --- | --- | --- | --- |
| inhibited | – | – | NC(=O)c1cccnc1 [nicotinamide, reference compound] |
| not affected | not repressed | strongly repressed | Flag-DBC1: Flag-tagged Deleted in Breast Cancer 1 protein purified by M2 immunoprecipitation under high stringency |
